Substitutions are numbered along the chain they refer to.
B1: NBX0108 (VHH)
VHH: QVKLEESGGGLVRAGGSLTLSCGASRGTFRTYSMGWFRQAPGKEREFVAAITWNGKYTYYGDSVQGRFTISKDNAKNTVSLQMNRLNPEDTAVYYCAANPIPTAQPPGIMAARSYVHWGQGTQVTVSS
notes: also called Clone 95
B2: NBX0216 (VHH)
VHH: QVQLQESGGGLVQAGGSLRLSCAASTSILSIDAMGWNRQAPGNQRRDLVAVIARGGSTQYADSVKGRFTITRDISKNTIYLQMNSLKPEYTGVYYCAADPGGASGLSWGQGTQVTVSL
notes: also called Clone 113
B3: NBX0105 (VHH)
VHH: QVQLVESGGGLVQAGGSLRLSCAASGRTFNTYYMGWFRQAPGKEREFVSAIRWSDGGTWYADSMKGRFTISRDNAKNTGYLQMNSLKPEDTAIYYCNANVYDGNRWRTYWGQGTQVTVSS
notes: also called Clone 94
B4: NBX0200 (VHH)
VHH: QVQLQESGGGLVQAGGSLRLSCAASGRTSSSAYTAWFRQAPGNEREFVASISWSGTTTYYADPVKGRFTISRDNAKNTVYLQMNSLKPDDTAVYYCAADRRSTIGSPRQQYAYWGQGTQVTVSS
notes: also called Clone 97
B5: NBX0201 (VHH)
VHH: B4 VHH with G26T, A32S, W53Y, N74S
notes: also called Clone 98
B6: NBX0202 (VHH)
VHH: B4 VHH with Y60H, D62H, S71F, A92G, S106T, Q109E
notes: also called Clone 99
B7: NBX0203 (VHH)
VHH: B4 VHH with E6Q, S30P, A32S
notes: also called Clone 100
B8: NBX0100 (VHH)
VHH: QVKLEESGGGLVQAGGSLRLSCAVSGSIFSTNLMGWYRQAPGKQRGFVAHITSGGNTDYLDSVKGRFTISRDNAKNTVYLQMNSLKPEDTAVYYCAAQTLGSSYYDAWGQGTQVTVSS
notes: also called Clone 92

What follows are binders tested against T1, PrgI (Salmonella Type III secretion needle protein), recombinant (Salmonella typhimurium (strain LT2) as …, UniProt P41784 1-80) (assay: phage ELISA, antigen-coated wells, anti-M13-HRP, A405).
T1 sequence: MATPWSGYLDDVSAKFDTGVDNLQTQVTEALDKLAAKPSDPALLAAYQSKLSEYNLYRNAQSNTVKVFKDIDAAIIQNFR

Binder | binding over background (PBS-only wells)
B1 | ≥ 4 fold
B2 | ≥ 4 fold
B3 | ≥ 4 fold

The binders below were run against T2, FimA (Salmonella Type-1 fimbrial protein, A chain), recombinant (Salmonella (serovar ), UniProt P37921 23-185) in the same assay as above.
T2 sequence: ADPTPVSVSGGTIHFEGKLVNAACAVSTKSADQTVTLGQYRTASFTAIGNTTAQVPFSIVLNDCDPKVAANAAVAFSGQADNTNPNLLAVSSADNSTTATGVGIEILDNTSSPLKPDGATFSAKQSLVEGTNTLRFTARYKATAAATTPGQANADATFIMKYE

Binder | binding over background (PBS-only wells)
B4 | ≥ 4 fold
B5 | ≥ 4 fold
B6 | ≥ 4 fold
B7 | ≥ 4 fold
B8 | ≥ 4 fold
